Numbering of substitutions follows the chain as printed.

What all share (assay): EMSA
What all share (conditions): tags: MBP fusion

Series [1] concerns the target T1, ZFP SBS#671 (synthetic).
T1 chain: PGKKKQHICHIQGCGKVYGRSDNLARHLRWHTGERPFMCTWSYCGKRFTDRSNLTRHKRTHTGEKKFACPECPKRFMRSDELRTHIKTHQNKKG
In short, it runs like this:
(§1)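 Purified ZFP was titrated against labeled double-stranded target (1 nM or lower, at least 10-fold below expected Kd) carrying the natural binding site with flanks. Binding buffer was 10 mM Tris pH 7.5, 100 mM KCl, 1 mM MgCl2, 0.1 mM ZnCl2, 5 mM DTT, 10% glycerol, 0.02% BSA, with equilibration for at least 45 min. Bound and free target were separated on a 10% polyacrylamide gel.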

Series [2] concerns the target T2, ZFP SBS#842 (synthetic, UniProt P08047).
T2 chain: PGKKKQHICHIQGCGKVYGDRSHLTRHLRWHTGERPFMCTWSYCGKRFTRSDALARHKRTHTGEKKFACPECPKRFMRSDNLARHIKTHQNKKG
In short, it runs like this: as §1

In series [3] the target is T3, ZFP SBS#670 (synthetic).
T3 chain: T2 chain with D20R, R21S, S22D, H23N, T25A, R78D, S79R, D80S, A83T
In short, it runs like this:
as §1

Series [4] addresses T4, ZFP SBS#667 (synthetic).
T4 chain: T2 chain with H23N, A53E, A55R, R56T
In short, it runs like this:
as §1

The target of series [5] is T5, ZFP SBS#669 (synthetic).
T5 chain: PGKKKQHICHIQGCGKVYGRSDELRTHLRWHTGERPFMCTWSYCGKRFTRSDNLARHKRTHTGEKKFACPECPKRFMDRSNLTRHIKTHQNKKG
Summed up:
as §1

The target in series [6] is T6, ZFP SBS#528 (synthetic, UniProt P08047).
T6 chain: T2 chain with D20T, R21T, H23N, T25R, D52S, A53N, A55Q, N81H, A83S
Summed up: as §1

For series [7], the target named is T7, ZFP SBS#527 (synthetic, UniProt P08047).
T7 chain: T2 chain with D20T, R21T, H23N, T25R, D52S, A53N, A55Q, N81H, A83S
Summed up: as §1

Series [8] has as its target T8, ZFP SBS#606 (synthetic, UniProt P08047).
T8 chain: T2 chain with D20T, R21T, H23N, T25R, A53N, A55Q, N81H, A83S
In short, it runs like this:
as §1

Series [9] concerns the target T9, ZFP SBS#738 (synthetic).
T9 chain: T2 chain with D20E, S22G, H23T, R26T, A53H, A55S, N81D, A83R
Summed up:
as §1

Series [10] deals with ZFP SBS#804 (synthetic). In short, it runs like this:
as §1

The target in series [11] is T10, ZFP SBS#803 (synthetic).
T10 chain: T2 chain with D20Q, R21S, H23D, T25Q, A53E, A55Q, R78Q, D80G, N81S, A83T
In short, it runs like this: as §1

Series [12] addresses ZFP SBS#801 (synthetic). In short, it runs like this:
as §1

For series [13], the target named is T11, ZFP SBS#836 (synthetic, UniProt P08047).
T11 chain: T2 chain with D20E, S22G, H23T, T25A, A53N, N81H, A83S
Summed up:
as §1

Series [14] concerns the target T12, ZFP SBS#848 (synthetic, UniProt P08047).
T12 chain: T2 chain with H23S, A53N, N81H, A83S
Summed up:
as §1

The target in series [15] is ZFP SBS#850 (synthetic). In short, it runs like this: as §1
The target in series [16] is T13, ZFP SBS#817 (synthetic).
T13 chain: T2 chain with D20R, R21S, S22D, H23S, A53N
In short, it runs like this: as §1

Series [17] addresses T14, ZFP SBS#897 (synthetic).
T14 chain: T2 chain with D20R, R21S, S22D, H23A, T25A, A53N, A83V
In short, it runs like this: as §1

Series [18] deals with T15, ZFP SBS#884 (synthetic).
T15 chain: T2 chain with D20R, R21S, S22D, H23S, A53N, A83V
In short, it runs like this:
as §1

Series [19] deals with T16, ZFP SBS#668 (synthetic).
T16 chain: T2 chain with D20E, S22G, H23T, T25A, A53N, N81A
In short, it runs like this: as §1

The target in series [20] is T17, ZFP SBS#674 (synthetic).
T17 chain: T5 chain with S51A, N53T, A55R, D78R, R79S, S80D, N81T, T83K, R84K
In short, it runs like this:
as §1

The target in series [21] is T18, ZFP SBS#891 (synthetic).
T18 chain: T2 chain with D20Q, R21S, H23S, T25V, A55S, R78Q, D80G, N81S, A83R, R84T
In short, it runs like this:
as §1

Series [22] deals with T19, ZFP SBS#887 (synthetic).
T19 chain: T2 chain with D20Q, H23A, T25A, A55S, R78Q, D80G, N81D, A83R, R84T
Summed up:
as §1

The target of series [23] is T20, ZFP SBS#888 (synthetic).
T20 chain: T2 chain with D20Q, R21S, H23S, T25V, A55S, R78Q, D80H, N81D, A83T, R84K
In short, it runs like this:
as §1

Series [24] has as its target T21, ZFP SBS#894 (synthetic).
T21 chain: T2 chain with D20Q, H23A, T25A, A55S, R78Q, D80H, N81D, A83T, R84K
Summed up: as §1

Series [25] deals with T22, ZFP SBS#672 (synthetic).
T22 chain: T1 chain with N23A
Summed up: as §1

Series [26] has as its target T23, ZFP SBS#828 (synthetic).
T23 chain: T2 chain with D20E, R21K, S22A, H23N, A53N, N81E, L82R, A83K
Summed up:
as §1

Series [27] has as its target T24, ZFP SBS#829 (synthetic).
T24 chain: T2 chain with D20E, R21K, S22A, H23N, A53N, N81T, A83K, R84K
In short, it runs like this: as §1

In series [28] the target is ZFP SBS#673 (synthetic). Summed up:
as §1

Sequence of ZFP SBS#673 (synthetic) (chain, as listed by the source): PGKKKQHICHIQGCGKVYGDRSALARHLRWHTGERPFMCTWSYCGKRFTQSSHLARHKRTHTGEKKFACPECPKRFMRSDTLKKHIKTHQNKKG
Sequence of ZFP SBS#801 (synthetic) (chain, as listed by the source): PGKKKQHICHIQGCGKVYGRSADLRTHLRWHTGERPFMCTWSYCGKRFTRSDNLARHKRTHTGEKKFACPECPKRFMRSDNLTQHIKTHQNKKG

B1: TCGGACGAGT (dsDNA)
DNA 1: TCGGACGAGT
DNA 2: ACTCGTCCGA
In general, Kd refers to the constant that tells how readily two partners part at equilibrium. The low end stands for tighter binding, the high end for weaker binding. In series [1], B1 yielded a Kd of 64 nM.

B2: GAGGTGGGCT (dsDNA)
DNA 1: GAGGTGGGCT
DNA 2: AGCCCACCTC
Consider B2, for which the affinity in series [2], expressed as Kd, was 5.4 nM.

B3: GACGTGGAGG (dsDNA)
DNA 1: GACGTGGAGG
DNA 2: CCTCCACGTC
In series [3], B3 came in with a Kd of 0.57 nM.

B4: GAGTCGGACG (dsDNA)
DNA 1: GAGTCGGACG
DNA 2: CGTCCGACTC
B4 had a Kd in series [4] of 50 nM.

B5: GACGAGTCGG (dsDNA)
DNA 1: GACGAGTCGG
DNA 2: CCGACTCGTC
In [5], B5 displayed a Kd of 90 nM.

B6: GGGGAGGATC (dsDNA)
DNA 1: GGGGAGGATC
DNA 2: GATCCTCCCC
For B6, the Kd in series [6] stood at 10 nM; in series [7] it was 2 nM; in series [8], 0.2 nM.

B7: GCGGGGTCCG (dsDNA)
DNA 1: GCGGGGTCCG
DNA 2: CGGACCCCGC
Regarding B7, in series [9], the Kd was 120 nM. This counts as sub-micromolar.

B8: GCAGCGGCTC (dsDNA)
DNA 1: GCAGCGGCTC
DNA 2: GAGCCGCTGC
In the case of B8, the dissociation constant (Kd) in [10] was 82.5 nM; in series [11], 57.5 nM.

B9: AAGGAGTCGC (dsDNA)
DNA 1: AAGGAGTCGC
DNA 2: GCGACTCCTT
Regarding B9, in series [12], binding was characterised by a dissociation constant (Kd) of 0.85 nM.

B10: GGGGAGGCCC (dsDNA)
DNA 1: GGGGAGGCCC
DNA 2: GGGCCTCCCC
B10: the results for the Kd in [13] and in series [14] were 24.2 nM and 49.5 nM, respectively.

B11: CAGGCTGTGG (dsDNA)
DNA 1: CAGGCTGTGG
DNA 2: CCACAGCCTG
Consider B11, for which binding in [15] was put at a Kd of 17 nM.

B12: GAGGAGGTGA (dsDNA)
DNA 1: GAGGAGGTGA
DNA 2: TCACCTCCTC
For B12, the equilibrium dissociation constant (Kd) in [16] was found to be 0.31 nM; in series [17], 0.07 nM; in series [18] it was 0.15 nM.

B13: GTGGAGGCCA (dsDNA)
DNA 1: GTGGAGGCCA
DNA 2: TGGCCTCCAC
On to B13, for which binding in series [19] was put at a Kd of 1.13 nM.

B14: GCGGCGTCGG (dsDNA)
DNA 1: GCGGCGTCGG
DNA 2: CCGACGCCGC
Turning to B14, the Kd in series [20] was 27.5 nM. This counts as double-digit nanomolar.

B15: TCAGTGGTAT (dsDNA)
DNA 1: TCAGTGGTAT
DNA 2: ATACCACTGA
With B15, the Kd in series [21] amounted to 18.5 nM; in series [22], 23.8 nM; in [23], 14 nM; in [24], 6.15 nM.

B16: TCGGACGTGG (dsDNA)
DNA 1: TCGGACGTGG
DNA 2: CCACGTCCGA
In series [25], B16 showed a Kd of 24 nM. This counts as double-digit nanomolar.

B17: GCGGAGGACC (dsDNA)
DNA 1: GCGGAGGACC
DNA 2: GGTCCTCCGC
B17: the dissociation constant Kd in series [26] turned out to be 0.1 nM; in series [27] it was 0.52 nM.

B18: GCGGGTGTCT (dsDNA)
DNA 1: GCGGGTGTCT
DNA 2: AGACACCCGC
Take B18: in [28], binding was characterised by a dissociation constant (Kd) of 48.3 nM.

Values taken from patent US20030068675, “Position dependent recognition of GNN nucleotide triplets by zinc fingers” (published 2003).
